The values that follow come from the nanobody polyreactivity screen of Harvey et al. (2022).

The series in a line: yeast display, Sf9 membrane polyspecificity reagent, FACS + sequencing; frameworks hold sequencing errors. The method in brief:
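Synthetic nanobody libraries on Saccharomyces cerevisiae BJ5465 were galactose-induced for 36–48 hours, stained 1 hour at 4 °C with 10% biotinylated, detergent-solubilized Sf9 membrane reagent and enriched on streptavidin microbeads. FACS then separated cells into low and high (top ~1%) gates by anti-HA (expression) and streptavidin (reagent binding) fluorescence. Genes were colony-PCR amplified, MiSeq 2 × 250 sequenced and CDR-length filtered. A clone's polyreactivity label is that of its gate of origin.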
As for “QDQLVESGGGLVQAGGSLRLSCAASGNIFKCKVMGWYRQAPGKERELVAAISRSGGRTYYADSVKGRFTISRDNAKNTVYLQMNSLKPVDTAVYYCNTKHRTKPTRPVDYWGQGTQVTVSS”, the “polyreactivity (PSR sort gate)” value was “high polyreactivity”.
The result for “QDQLVESGGGLVQAGGSLRLSCAASGNIFWSNAMGWYRQAPVKERELVAGIRSTGGSTYYADSVKGRFTISRDNAKNTVYLQMNSLKPEDTAVYYCAAEHWYSTPWWTDDYWGQGTQVTLSS” reads “high polyreactivity”; that for “QDQLVESGGGLVQAGGSLRLSCAASGRIFNQYGMGWYRQAPGKERELVAAIRSGDSTNYADSVKGRFTISRDNAKNTVYLQMNSLKPEDTAVYYCARDRPGDYAGYDYWGQGTQVTVSS”, “low polyreactivity”.
“QDQLVESGGGLVQAGGSLRLSCAASGRIFPAYVMGWYRQAPGKERELVATIDNGGGTYYADSVKGRFTISRDNAKNTVYLQMNSLKPEDTAVYYCARDRHVRWGLKMDYWGQGTQVTVSS”: the “polyreactivity (PSR sort gate)” value is listed as “low polyreactivity”.
To “QDQLVESGGGLVQAGGSLRLSCAASGRIISLYAMGWYRQAPVKERDLVAAISRRSGNTNYADSVKGRFTISRDNAKNTVYLQMNSLKPEDTAVYYCAARPGAISSTSPYDYWGQGTQVTVSS” belongs “high polyreactivity”; to “QDQLVESGGGLVQAGGSLRLSCAASGRIVSDYAMGWYRQAPGKERELVARISRSDGSSYYADSVKGRFTISRDNAKNTVYLQMNSLKPEDTAVYYCAAQWTDGRRDHWWDKGFYYWGQGTQVTVSS”, “low polyreactivity”; to “QDQLVESGGGLVQAGGSLRLSCAASGRLFSQYAMGWYRQAPGKERELVAAISWRTGSTYYADSVKGRFTISRDNAKNTVYLQMNSLKPEDTAVYYCSAANAGRYPYNYSGQGTQVTVSS”, “high polyreactivity”.
The result for “QDQLVESGGGLVQAGGSLRLSCAASGRNFPGYVMGWYRQAPGKERELVAVITSNGGITYYADSVKGRFTISRDNAKNTVYLQMNSLKPEDTAVYYCAAYEIYYEFDSWGQGTLVTVSS” reads “low polyreactivity”; that for “QDQLVESGGGLVQAGGSLRLSCAASGRTFDSYAMGWYRQAPGKERELVAAIDADSVKGRFTISRDNAKNTVYLQMNSLKPEVTAVYYCAKPSRWGWTGFYAYEYWGQGTQVTVSS”, “low polyreactivity”; that for “QDQLVESGGGLVQAGGSLRLSCAASGRTFEGNAMGWYRQAPGKERELVAAITSGGRTNYADSVKGRFTISRDNAKNTVYLQMNSLKPEDTEVYYCANVYRSIGPNVSRYGLSYYYWGQGTQVTVSS”, “low polyreactivity”.
To “QDQLVESGGGLVQAGGSLRLSCAASGRTFGEYAMGWYRQAPGKERELVAAISSTGSTYYADSVKGRFTISRDNAKNTVYLQMNSLKPEDTAVYDCAAEIVRYGDEYDYWGQGTQVTVSS” belongs “low polyreactivity”; to “QDQLVESGGGLVQAGGSLRLSCAASGRTFGVNAMGWYRQAPGKERELVASIRWNGGSTYYADSVKGRFTISRDNAKNTVYFQMNSLKPEDTAVYYCNAVRRYRSREFDYWGQGTQVNVSS”, “low polyreactivity”.
Consider “QDQLVESGGGLVQAGGSLRLSCAASGRTFHSYVMGWYRQAPGKERELVAAISRSGGNTYYADSVKGRFTISRDNAKNTVYLQMNSLKPEDTAVYYCAAALSAYVKWDYYYWGQGTQVTVSS”, for which the “polyreactivity (PSR sort gate)” value is recorded as “low polyreactivity”.
The result for “QDQLVESGGGLVQAGGSLRLSCAASGRTFIYYVMGWSRQAPGKERELVAAISLRGSSTRYADSVKGRFTISRDNAKNTVYLQMNSLKPEDTAVYYCAARPRLSRYDYWGQGTQVTVSS” reads “high polyreactivity”.
To “QDQLVESGGGLVQAGGSLRLSCAASGRTFRSYAMGWSRQAPGKERELVAAISTRGGSTYYADSVKGRFTISRDYAKNTVYLQMNSLKPEDTAVYYCAARGTPSARYGDWGQGTQVTVSS” belongs “high polyreactivity”.
For the sequence “QDQLVESGGGLVQAGGSLRLSCAASGRTFSRYTMGWYRQAPGKERELVAAISKRGGSTYYADSVKGRLTISRDNAKNTVYLQMNSLKPADTAVYYCNAYGLVGLDGVKMYYWGQGTQVTVSS”, the “polyreactivity (PSR sort gate)” value is “high polyreactivity”.
With “QDQLVESGGGLVQAGGSLRLSCAASGRTFTHYALGWYRQAPGKERELVAAISWSGGITYYADSVKGRFTISRDYAKNTVYLQMNSLKPEDTAVYYCAAEHYFSGYYYWGQGTQVTVSS”, the “polyreactivity (PSR sort gate)” value was “high polyreactivity”.
For the sequence “QDQLVESGGGLVQAGGSLRLSCAASGRTFWRNAMGWSRQAPGKEREMVAAINSGGRTYYADAVKGRFTISRDNAKNTVYLQMNSLKPEDTAVYYCAVYVHRFLDGRVRSYRGDYWGQGTQVTVSS”, the “polyreactivity (PSR sort gate)” value was “high polyreactivity”.
The result for “QDQLVESGGGLVQAGGSLRLSCAASGSIFARYAMGWYRQAPGKERELVAAINSTVSTNYADSVKGRFTISRDNAKNTVYLQMNSLKPEDTAVYYCAVDIVRGGRDSWGQGTQVTVSS” reads “low polyreactivity”; that for “QDQLVESGGGLVQAGGSLRLSCAASGSIFERYTMGWSRQAPGKERELVAAITTNGGSTYADSVKGRFTISRDNAKNTVYLQMNTLKPEDTADYYCNVDVYLYAKEYDYWGQGTQVTVSS”, “high polyreactivity”; that for “QDQLVESGGGLVQAGGSLRLSCAASGSIFGGNTMGWYRQAPGKERELVAAISRSGGSTYYADSVKGRFTISRDNAKNTVYLQMNSLKPEDTEVYYCYRKQAGHAKGYDYWGQGTQVTVSS”, “high polyreactivity”.
The result for “QDQLVESGGGLVQAGGSLRLSCAASGSIFNGNAMGWYRPAPGKERELVAAITRRGGRTFYADSVKGRFTISRDNAKNSVYLQMNSLKPEDTAVYYCNAYSKAVQGGYDYWGQGTQVTVSS” reads “high polyreactivity”.
To “QDQLVESGGGLVQAGGSLRLSCAASGSIFPDYTMGWYRQAPGKERELVPGNTWNGGGTYYADSVKGRITISRDNAKNTVYLQMYSLKPEDTAVYYCAAVWSGSRSTGAWGPYNYWGQGTQVTVSS” belongs “low polyreactivity”; to “QDQLVESGGGLVQAGGSLRLSCAASGSIFPGYAMGWYRKAPGKEREFVATITWSGGSTYYADSVKGRFTISRDNAKNTVYLQMNSLKPEDTAVYYCNADSNWYYQWNYYGLYDYWGQGTQVTVSS”, “low polyreactivity”.
Consider “QDQLVESGGGLVQAGGSLRLSCAASGSIFRAYAMGWYRQAPGKERELVAAISRSGDSTYYADSVKGRFTISRDNAKNTVYLQMNSLKPEDTAVYYCAAQRKPYVRPSGPYKRRDYWGQGTQVTVSS”, for which the “polyreactivity (PSR sort gate)” value is given as “high polyreactivity”.
The result for “QDQLVESGGGLVQAGGSLRLSCAASGSIFTDYAMGWYRQAPAKERELVAAITSSGGSTYYADSVKGRFTISRDYAKNTVYLQMKSLKTEDTAVYYCAADRITIYDYWGQGTQVTVSS” reads “low polyreactivity”; that for “QDQLVESGGGLVQAGGSLRLSCAASGSIFVNYAMGWYRQAPGKERELVAAISRSGGRTYYADSVKGRFTISRDSAKITVYLQMNSLIPEDTAVYYCNVDPVLRTIEGDYWGQGTQVTVSS”, “high polyreactivity”; that for “QDQLVESGGGLVQAGGSLRLSCAASGSIFVRYAMGWYRQAPGKERELVAAITSSAGYTYYADSVKGRFTISRDNAKNTVNLQMNSLKPEDTAVYYCAAVRYDASKFYYWGAGTQVTVSS”, “high polyreactivity”.
The result for “QDQLVESGGGLVQAGGSLRLSCAASGSIFYRNAMGWYRQAPGKERELVAAISSDGSTNYADSVKGRFTISRDNAKNTVYLQMNSLKPEDTAVYYCAAPWTQILDYWGQGTQVTVSS” reads “low polyreactivity”; that for “QDQLVESGGGLVQAGGSLRLSCAASGSMFDYYAMGWYRQAPGKERELVAAISGSGSRTYYADSVKGRFTISRVTAKNTVYIQMNRLKPEDTAFYYCAAESVVYDIVGYEYWYDYYWGLGTQVTVSS”, “high polyreactivity”; that for “QDQLVESGGGLVQAGGSLRLSCAASGSTFDGYAMGWYRPAPGKERELVADITSGGSTYYADSVKGRFTISRDNAKNTVYLQMNSLKPEDTAVYYCAVEGWWDDYNSRAGEFNYWGQRTQVTVSS”, “low polyreactivity”.
In the case of “QDQLVESGGGLVQAGGSLRLSCAASGSTFGFYAMGWYRQAPGKERELVAAITTGGSTNYADSVKGRFTISRDNAKNTVYLQMNSLKPEDTAVYYCNADVYWNPYYDYDYWGQGTQVTVSS”, the “polyreactivity (PSR sort gate)” value is “high polyreactivity”.
“QDQLVESGGGLVQAGGSLRLSCAASGSTFHLNALGWYRQSPGKERELVAAISRDGSSTSYADSEKGRFTISRDNAKNTVYLQMNSLKPEDTAVFYCAADDTLDRVPSTFIDGSPGYGYWGLGTQVTVSS”: the “polyreactivity (PSR sort gate)” value is listed as “low polyreactivity”.
To “QDQLVESGGGLVQAGGSLRLSCAASGSTFLTYAMGWYRQAPGKERELVAAISKTGASTYYADSVKGRFTISRDNAKNTVYLQMNSLKPEDTAVYDCAAGRYTSYSPRYYYWGQGTQVTVSS” belongs “high polyreactivity”; to “QDQLVESGGGLVQAGGSLRLSCAASGSTFSGYGMGWYRQAPGKERELVAAITSSGGRTYYADSVKGRFTISRDNAKNTVYLQMNSLKPEDTAVYYCAALYYHEYDYWGQGTQVTVSS”, “low polyreactivity”; to “QDQLVESGGGLVQAGGSLRLSCAASGSTFVANDMGWYRQAPGKERELVASISDGSSTYADSVKGRFTISRDNAKNTVYLQMNSLKPEDTAVYYCAKDGSLDAQSYDYDYWGQGTQVTVSS”, “low polyreactivity”.
The result for “QDQLVESGGGLVQAGGSLRLSCAASGSTFVVNAMGWYRQAPGKERELVAAISSSGSSTYADSVKGRFTISRDNEKNTVYLQMNCLKPEDTAVYYCHKTTLLTVEYDYWGQGTQVSVSS” reads “low polyreactivity”; that for “QDQLVESGGGLVQAGGSLRLSCAASGSTLGYNAMGWYRQAPGKERELVAAIRGGDDDTYYADSVKGRFTISRDNAKNTVYLQMNSLKPEDTAVYYCATGDTSIPYSTPGGYDSWGQGTQVTVSS”, “low polyreactivity”; that for “QDQLVESGGGLVQAGGSLRLSCAASGYTFTSNAMGWYRQAPRKERELVAAITNVGSTNYADSVKGRFTISRDNAKNTVNLQMNSLKPEDTAVYYCAAGGSSSWAFNYWGQGTQVTVSS”, “low polyreactivity”.
Turning to “QDQLVESGGGLVQAGGSLRLSCAASGYTLYTYAMGWNRQAPRKERELVAAISTGGGRTYNADSVKGRFTISRDNAKNTVYLQMICLKPEDTAVYYCAAPYRSLKTGRYDYWGQGTQVSVSS”, the “polyreactivity (PSR sort gate)” value was “high polyreactivity”.
To “QDQLVESGGGLVQAGGSLRLSCAASRSTFYHNVMGWYRQAPGKERELVASIDTGDSTNYADSVKGRFTISRDNAKNTVYLQMNSLKPEDTAVYYCAAEIPRRWASFATLWYDYWGQGTQVTVSS” belongs “low polyreactivity”.
